The values below come from ChEMBL document CHEMBL1124124, “Synthesis and interaction with uridine phosphorylase of 5'-deoxy-4',5-difluorouridine, a new prodrug of 5-fluorouracil” (J Med Chem, 1988).

For data set [1], the target named is Uridine phosphorylase 1 (Mus musculus) (UniProt P52624). Nature of the data set: Kinetic constant for interaction with Urd phosphorylase from Lewis lung carcinoma. The conditions noted are these: mouse.
Experiment in data set [2]: as above

Chain of Uridine phosphorylase 1 (Mus musculus) (P52624 whole entry, looked up): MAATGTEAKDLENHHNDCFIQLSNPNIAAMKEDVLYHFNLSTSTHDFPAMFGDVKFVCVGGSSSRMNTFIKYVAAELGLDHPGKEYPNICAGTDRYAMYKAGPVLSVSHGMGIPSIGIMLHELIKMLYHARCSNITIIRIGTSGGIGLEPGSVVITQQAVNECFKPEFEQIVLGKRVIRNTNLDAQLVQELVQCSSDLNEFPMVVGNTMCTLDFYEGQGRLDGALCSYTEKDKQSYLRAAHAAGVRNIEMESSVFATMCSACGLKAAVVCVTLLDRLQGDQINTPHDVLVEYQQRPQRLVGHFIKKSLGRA

B1: Uridine phosphorylase 1 (Homo sapiens), Q16831 (protein)
chain: MAATGANAEKAESHNDCPVRLLNPNIAKMKEDILYHFNLTTSRHNFPALFGDVKFVCVGGSPSRMKAFIRCVGAELGLDCPGRDYPNICAGTDRYAMYKVGPVLSVSHGMGIPSISIMLHELIKLLYYARCSNVTIIRIGTSGGIGLEPGTVVITEQAVDTCFKAEFEQIVLGKRVIRKTDLNKKLVQELLLCSAELSEFTTVVGNTMCTLDFYEGQGRLDGALCSYTEKDKQAYLEAAYAAGVRNIEMESSVFAAMCSACGLQAAVVCVTLLNRLEGDQISSPRNVLSEYQQRPQRLVSYFIKKKLSKA
As for B1, the Km was 6 mM in data set [1] and 0.6 mM in data set [2].

A word on the Km: it is the concentration of substrate that gives half-maximal velocity.
